Results on 7 variants are retold here after publication PMC3688503 (2013).

The labels stand for the following.
B1: wild-type MTM1-B10 fusion protein [human] / wild-type MTMR12-GFP protein [human] (parent complex)
chain 1: MASASTSKYNSHSLENESIKRTSRDGVNRDLTEAVPRLPGETLITDKEVIYICPFNGPIKGRVYITNYRLYLRSLETDSSLILDVPLGVISRIEKMGGATSRGENSYGLDITCKDMRNLRFALKQEGHSRRDMFEILTRYAFPLAHSLPLFAFLNEEKFNVDGWTVYNPVEEYRRQGLPNHHWRITFINKCYELCDTYPALLVVPYRASDDDLRRVATFRSRNRIPVLSWIHPENKTVIVRCSQPLVGMSGKRNKDDEKYLDVIRETNKQISKLTIYDARPSVNAVANKATGGGYESDDAYHNAELFFLDIHNIHVMRESLKKVKDIVYPNVEESHWLSSLESTHWLEHIKLVLTGAIQVADKVSSGKSSVLVHCSDGWDRTAQLTSLAMLMLDSFYRSIEGFEILVQKEWISFGHKFASRIGHGDKNHTDADRSPIFLQFIDCVWQMSKQFPTAFEFNEQFLIIILDHLYSCRFGTFLFNCESARERQKVTERTVSLWSLINSNKEKFKNPFYTKEINRVLYPVASMRHLELWVNYYIRWNPRIKQQQPNPVEQRYMELLALRDEYIKRLEELQLANSAKLSDPPTSPSSPSQMMPHVQTHF
chain 2: MLGKGVVGGGGGTKAPKPSFVSYVRPEEIHTNEKEVTEKEVTLHLLPGEQLLCEASTVLKYVQEDSCQHGVYGRLVCTDFKIAFLGDDESALDNDETQFKNKVIGENDITLHCVDQIYGVFDEKKKTLFGQLKKYPEKLIIHCKDLRVFQFCLRYTKEEEVKRIVSGIIHHTQAPKLLKRLFLFSYATAAQNNTVTDPKNHTVMFDTLKDWCWELERTKGNMKYKAVSVNEGYKVCERLPAYFVVPTPLPEENVQRFQGHGIPIWCWSCHNGSALLKMSALPKEQDDGILQIQKSFLDGIYKTIHRPPYEIVKTEDLSSNFLSLQEIQTAYSKFKQLFLIDNSTEFWDTDIKWFSLLESSSWLDIIRRCLKKAIEITECMEAQNMNVLLLEENASDLCCLISSLVQLMMDPHCRTRIGFQSLIQKEWVMGGHCFLDRCNHLRQNDKEEVPVFLLFLDCVWQLVHQHPPAFEFTETYLTVLSDSLYIPIFSTFFFNSPHQKDTNMGREGQDTQSKPLNLLTVWDWSVQFEPKAQTLLKNPLYVEKPKLDKGQRKGMRFKHQRQLSLPLTQSKSSPKRGFFREETDHLIKNLLGKRISKLINSSDELQDNFREFYDSWHSKSTDYHGLLLPHIEGPEIKVWAQRYLRWIPEAQILGGGQVATLSKLLEMMEEVQSLQEKIDERHHSQQAPQAEAPCLLRNSARLSSLFPFALLQRHSSKPVLPTSGWKALGDEDDLAKREDEFVDLGDV

The test covers variants of B1. Put plainly: co-immunoprecipitation (anti-B10 IP, western blot quantification); overexpressed in Cos1 cells; IP with anti-B10 tag antibody; parent: 1; read off a plot.
With chain 1 C375S, the response was ~0.92 AU. Take chain 1 R421Q: the response is ~0.92 AU. For chain 1 P205L the value was ~0.07 AU; for chain 1 R69C, ~0.05 AU; for chain 1 R184G, ~0.05 AU. For chain 1 R241C the value was ~1 AU; for chain 1 V49F, ~0.05 AU.
